# Measurements as given in IntAct's records for PubMed 20723758.
# B1: Epidermal growth factor receptor (Drosophila melanogaster (Fruit fly)), P04412 (parent)
# chain: MLLRRRNGPCPFPLLLLLLAHCICIWPASAARDRYARQNNRQRHQDIDRDRDRDRFLYRSSSAQNRQRGGANFALGLGANGVTIPTSLEDKNKNEFVKGKICIGTKSRLSVPSNKEHHYRNLRDRYTNCTYVDGNLKLTWLPNENLDLSFLDNIREVTGYILISHVDVKKVVFPKLQIIRGRTLFSLSVEEEKYALFVTYSKMYTLEIPDLRDVLNGQVGFHNNYNLCHMRTIQWSEIVSNGTDAYYNYDFTAPERECPKCHESCTHGCWGEGPKNCQKFSKLTCSPQCAGGRCYGPKPRECCHLFCAGGCTGPTQKDCIACKNFFDEAVSKEECPPMRKYNPTTYVLETNPEGKYAYGATCVKECPGHLLRDNGACVRSCPQDKMDKGGECVPCNGPCPKTCPGVTVLHAGNIDSFRNCTVIDGNIRILDQTFSGFQDVYANYTMGPRYIPLDPERREVFSTVKEITGYLNIEGTHPQFRNLSYFRNLETIHGRQLMESMFAALAIVKSSLYSLEMRNLKQISSGSVVIQHNRDLCYVSNIRWPAIQKEPEQKVWVNENLRADLCEKNGTICSDQCNEDGCWGAGTDQCLTCKNFNFNGTCIADCGYISNAYKFDNRTCKICHPECRTCNGAGADHCQECVHVRDGQHCVSECPKNKYNDRGVCRECHATCDGCTGPKDTIGIGACTTCNLAIINNDATVKRCLLKDDKCPDGYFWEYVHPQEQGSLKPLAGRAVCRKCHPLCELCTNYGYHEQVCSKCTHYKRREQCETECPADHYTDEEQRECFQRHPECNGCTGPGADDCKSCRNFKLFDANETGPYVNSTMFNCTSKCPLEMRHVNYQYTAIGPYCAASPPRSSKITANLDVNMIFIITGAVLVPTICILCVVTYICRQKQKAKKETVKMTMALSGCEDSEPLRPSNIGANLCKLRIVKDAELRKGGVLGMGAFGRVYKGVWVPEGENVKIPVAIKELLKSTGAESSEEFLREAYIMASEEHVNLLKLLAVCMSSQMMLITQLMPLGCLLDYVRNNRDKIGSKALLNWSTQIAKGMSYLEEKRLVHRDLAARNVLVQTPSLVKITDFGLAKLLSSDSNEYKAAGGKMPIKWLALECIRNRVFTSKSDVWAFGVTIWELLTFGQRPHENIPAKDIPDLIEVGLKLEQPEICSLDIYCTLLSCWHLDAAMRPTFKQLTTVFAEFARDPGRYLAIPGDKFTRLPAYTSQDEKDLIRKLAPTTDGSEAIAKPDDYLQPKAAPGPSHRTDCTDEMPKLNRYCKDPSNKNSSTGDDERDSSAREVGVGNLRLDLPVDEDDYLMPTCQPGPNNNNNMNNPNQNNMAAVGVAAGYMDLIGVPVSVDNPEYLLNAQTLGVGESPIPTQTIGIPVMGGPGTMEVKVPMPGSEPTSSDHEYYNDTQRELQPLHRNRNTETRV
# partner: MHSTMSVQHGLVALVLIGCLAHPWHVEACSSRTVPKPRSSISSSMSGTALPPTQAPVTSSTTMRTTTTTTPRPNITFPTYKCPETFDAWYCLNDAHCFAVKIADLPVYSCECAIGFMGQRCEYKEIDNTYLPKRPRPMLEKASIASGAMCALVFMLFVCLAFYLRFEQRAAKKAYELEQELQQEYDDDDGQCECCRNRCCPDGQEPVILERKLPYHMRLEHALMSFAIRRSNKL
# Variants of: B1
# Conditions: with spitz_drome spi
row,Variant,effect of a mutation on the interaction
1,Y341E;N342A;T344D;Y346E;V347A;L348D,decreasing interaction
